Results taken from a protein production outcome set (Wang et al. 2014).

Test: label from the status in PepcDB records

Row | Sequence | protein production
1 | MGVKVATSSTFHQWVAHPIVHHSSSLSQTLASSAVSSPSRRRIIGNDGRSSLSCRSVMQSQRLNPSSPFGTSSTNLRHSKSCELWESTKRPKTQLIRRAFSANVDPFSEEEFAKKMQELTLKFQVSNEEEDNESDTRIDDYTRKMDIVGSHNNFRSDSMEPPWPEMVQMSNIERKANSVDLPLSLRIIKRKLQMEEGVLNQVGESACCSVKKAFSSMVFMIRELQSFTLHMRELLLFEDLQGILHRVRKEMQASFVWLFQQVFSATPTLMVSVMILLANFTVYSIESNSALAAAVSPPTTLSFSFETTAEISETQETNQKFDSSMVKTFSVSSPYGKTSFVGGGGGNNIPPPVQSGTDGDGSDQFRKSQFSSSSLGATSADSDVSVSGQEEIRLWNSILEETAKMETLDHETMKGMVSPVEARLEAEESMDYFKTELLYQTGLSQEPGNVLLLANYAQFLYLIIHDYDRAEKYFKRAAKAEPADAEALNKYATFLWRARNDIWRAEETYLEAISADPTNSVYSANYAHFLWNTGGDETCFPLDAPSQQNNTT | failed
2 | MGGIARLYGDSALAHFSQAHVCVVGVGGVGSWAVEALARTGIGRLTLIDLDNVAESNVNRQLHALTGDFGKAKVTALRERITQINPQCEVFEIEDFVTEDNLPEYFGKGFDFVIDAIDQVRVKAAMAAYFVERKQPFVLSGGAGGQKNPALIQTADLSRVTHDPLLANLRYTLRKRYGFSRDTKANMRVPCVYSTENIVPPQSREACSADAAPQGLSCAGYGASMLVTASFGLYCAQAAVEHIADKKLEHHHHHH | failed
3 | MRQKELETADWQRNLKIAWIGTFFTGASFSIVMPFMALYVEELGVKGAMVEWYAGLSVALSALASALVSPVWGHLADRYGRKPMMIRASMVMTFTMGGLAFVPNVFWMLFLRILNGLFAGYVPNATALIASQAPQQRSGYALGTLSTGLTAGVLIGPLLGGAISEAFGMRGTFLLVGLILFICCLLTIFGLREDFQLIEKVEIMSFSQVFAKIPSKSLLIGLFVTSMIIQISAQSIAPILALYIRYLGQSDNILFYSGLIVSAMGFSSLLSTPYLGRLGDRIGNHRLLLMGLFYSFLLYFLCGFAGSALQLGLLRFAYGFGVGALTPSVNSLLTKMTPKEGISRIFSLNQSFSYIGQVLGPFVGSAVATGLGYRWVFFVTAAIVFGNFVCSLIIFRKSLGVKNIGES | failed
4 | MERRLAAILIADVVGYSRLSQIDEEGTRARFQADQNDVFEPAIERHHGRLVKTMGDGLLVEFQSVVDALRCAVEVQQLKATQSAASLPEHRLEFRIGINLGDIIVEGEDIQGDGVNIADRIQALAEPGGIAISGTTYDQVKSKIPVGFASLGEQRLKSITEPIRVYRILLDPTAAGKTLKTRRRLPRRRLVAGIAAAIVVLALAGAALWWQPWMPAKPPGPGERFAYPLPDRPSVAVLPFINVSGDSEHDHLAEGLTDDLITELSKVSGLFVIARHSVFAIQGSVGKIQDVATELGVQYVLEGTLQRAGPRLRINVKLIDAVSGLSLWAERYDRQYADLFAVQDDVIGKIISALSVKLSARERDQLARIPTENLEAYDFYMRAEQEGFILRDVDTYRRTLSFYQKAIDLDPGFANAHAGIARVAVDVWRNDYNYLWSAAVARKIAYDAAGQALKLDPNNARAHTVLALLQWVDGRETEAKNSANMAVAMEPNDAEAAANLALILVHTGSSGQAITEMEKALRLDPSPASSFQLLAGIVFYTAGDDQRAISLIEPTLDSLPKVEPAREYLAAAYADQGNETKAAAETAKLLELFPEGNLTYYGYLYDYWRDGDLQRHLAALRKAGIPEWPFGFTGSQADRLGEADLRNLVDGKSWTGKHKNGTDFTQYFDRAGNTAYRSANTNITGIVEVRGDSLCEKFEGYFLDRMVCGYVYRNTSGEQRDRPYVHVTPRALTFFSPTP | failed
5 | MINSVITQMAEELRKASKVALFSHVSPDGDCIGSMLGIGLALEALGKEVAMFNPDPIPRNLSFLPGVDKITQSMPDPLPETLLFVDCADLQRVQLQREDLPADAVILNLDHHISNQNFGRINWVDSQAAASGELAYALVRRLNVELTQEIAANFYTALLTDTGSFKYANTTAKTHQIAGELMETGISLGDIHHFVFDQTPMVKLELLRRGLNQLQFFAEGQLGMMTLRKQDFEESGAEESLSEGLIDHARTVEGVEVAVLLKEVKPDVVRVSLRSNRWFDVNRIADGFGGGGHQRAAGCTLHLSLEEAKQKVRQIIEEELKLGRSHLEHHHHHH | not failed
6 | MYLPLLMALVVALSSCSNKMGALSSDYFTTTPQVLEAVGGKVPVTINGKFPEKYFKKNAVVEVTPVLKWEGGQVKGQPAVFQGEKVEGNDQTISYKMGGNYTMKTTFDYVPEMAKSELYLEFNAKVGKKTIAIPAVKIADGVISTSELINNTLSSANPALGDDAFQRIIKEAHNANIMFLIQQANIRSSELKTAKEFNKEVANVNDAENKKISNIEISAYASPDGGVKLNTGLAENREGNTTKLINKDLKKAKIEVPVDAKYTAQDWEGFQELVSKSNIQDKELILRVLSMYQDPEQRETEIKNISSVYKTLADEILPQLRRSRLTLNYEIIGKSDEEIANLAATDPKQLNVEEILYAATLTNDPAKKADIYTKASQQFPNDYRAFNNLGKLAYQAGDLDKAQSYVKKAESIKSAPEVNMNLGLIALAKGDKAAAESYLGKAAGAKELNETLGNLYVAQGQYERAVNAFGDTKTNSAALAQILAKDYNKAKNTLAGIATPDAYTDYLMAVLGARTNNTSMLTSSLKSAVAKNPALAKKAATDLEFAKYYTNADFMSIVK | failed
7 | MFKNNSYKVGVLALALSMALTGCVSDGDDGEQGLKGEQGAPGVVGVDGNDGKSLPRDLNVEVVGRFATGIYGKSAAEIVQFHKSSNAAFAINGASNQIEVISLTNLSTTAVGNPVADESLTSNAFIFPLNVSVTNSAGVEKDMSLGAVNSIAIKKDLLAIAVEGEIKQAHGAILFYSLNELGEGTFIKAVEVGALPDMVTFTPDGSKALVANEGEPNTDYTNDPEGSISVISVVDLMPANVAKTINLSTDIVFSDDNLVPEDFDTDAKRLAILSKAGVKFAGPAGNTVAKDLEPEYITTSSNSKMAYVSLQENNAIGIINLEELTIEVKALGYKDWGKYQLDFSNKDEVPEFKSIQGLYGMYQPDTLASYTWNDTTFIVSANEGDARDYDGFSEEVRVKDIIDTDELNQTLSSELQSQYDVSGGKNYLGRLKVTTALGDEDQNGEFEKLFAYGARSFSIWDKNANLVFDSGDDFGKISAAIMGDNFNAAHTKNKGDNRSDDKGGEPEAIDVGEIAGRTYAFIAQERAGDLFVYDITNPFKTAFVTHYNNRDFTVDYEMDDDLADPCDSSEGMDCTKVNSAGDLGPESIKFVSAIDSPTSKPLLIIGNEVSGTVTVYQITEQ | failed
8 | MSLTASDDLPGVLIVEDGRLAAATLRIQLESLGYDVLGVFDNGEEAVRCAPDLRPDIALVDIMLCGALDGVETAARLAAGCNLPIIFITSSQDVETFQRAKRVNPFGYLAKPVAADTLHRSIEMAIHKKKLEEGHHHHHH | not failed
9 | MTEEQFSSYHPPLPPTTEEDRFSWLRLLRSRRVGPTTFRRLMHEHGTAQNALAALPEVARAAGVEGYEICPPGVVEAELKAAKAAKARLLCLGDADYPSHLAGISDAPPLLWLLGDPALLRRPMIALVGARNASSLGTRMARALAQDLGTAGFVVVSGLARGIDTAAHLAALPSGTIAVMAGGVDTVYPAENTHLAADIAQHGLRLSEQPMRLTPQARHFPRRNRIISGLAQAVVVVEAAAKSGSLITARDALDQGREVLAVPGHPFDARAAGCNMLIRDGAHLVRNAEDVITALPALTAPQPQPDLCDLMQQPAPPAKRSLRETVALHSLILDRLGPSPVAEDQLIRDLAASPGEVAPVLVDLELEGRINRQAGGLLSRVN | failed
10 | MKLPRLWPTALSLLCSLALAQAPASPGTTAQGPAPAAVAGLAALPGGTRLVCAGTSLWTLSTSAAPQRLPLPEDCQGLRVSPSGKVVLVSGRASVTVWRLDAEQQSDGQLWRRVALPEPARRVAFLNDSTLLLAGARGLEQLDLNTQARTLLRPGAVTGLATAPDGRRAVMGDGSRVQLVNVADGAVLSGVRCEVACPLQDVQFSRDQRGAVVQAGPVLYALREGHPATAVLRGAEGAMGFPLPDGGVWVLTAGRLERRDAQTGRREGVLRPEGVSGPAAWTPEGGLLYVAGRELVELDKTGQEVGRTALP | failed
11 | MSWMQNLKNYQHLRDPSEYMSQVYGDPLAYLQETTKFVTEREYYEDFGYG | failed
12 | MTASSKRTKKQAILETALQLFVSQGFHGTSTATIAREAGVATGTLFHHFPSKEQLLEQLFLGVKQEFADAIQASVSSRGDLKQDAEQLWFAALTWAMANPLKQAFFQLYSMSPTVEQSVRDQAMHGILGFIAELIRQGQASGELAEYPIELMQDNCHGQYLAATRYFVDHPERWQQAHERSASFALFWNAMAVR | not failed
